Laboratory results published in paper PMC3162478 (Nature, 2011).

Assays:
[1] = molecular target: T1, FimD usher, full-length (undigested), with C-terminal Strep-tag II (Escherichia coli, UniProt P30130 46-878); assay: AUC
T1 sequence: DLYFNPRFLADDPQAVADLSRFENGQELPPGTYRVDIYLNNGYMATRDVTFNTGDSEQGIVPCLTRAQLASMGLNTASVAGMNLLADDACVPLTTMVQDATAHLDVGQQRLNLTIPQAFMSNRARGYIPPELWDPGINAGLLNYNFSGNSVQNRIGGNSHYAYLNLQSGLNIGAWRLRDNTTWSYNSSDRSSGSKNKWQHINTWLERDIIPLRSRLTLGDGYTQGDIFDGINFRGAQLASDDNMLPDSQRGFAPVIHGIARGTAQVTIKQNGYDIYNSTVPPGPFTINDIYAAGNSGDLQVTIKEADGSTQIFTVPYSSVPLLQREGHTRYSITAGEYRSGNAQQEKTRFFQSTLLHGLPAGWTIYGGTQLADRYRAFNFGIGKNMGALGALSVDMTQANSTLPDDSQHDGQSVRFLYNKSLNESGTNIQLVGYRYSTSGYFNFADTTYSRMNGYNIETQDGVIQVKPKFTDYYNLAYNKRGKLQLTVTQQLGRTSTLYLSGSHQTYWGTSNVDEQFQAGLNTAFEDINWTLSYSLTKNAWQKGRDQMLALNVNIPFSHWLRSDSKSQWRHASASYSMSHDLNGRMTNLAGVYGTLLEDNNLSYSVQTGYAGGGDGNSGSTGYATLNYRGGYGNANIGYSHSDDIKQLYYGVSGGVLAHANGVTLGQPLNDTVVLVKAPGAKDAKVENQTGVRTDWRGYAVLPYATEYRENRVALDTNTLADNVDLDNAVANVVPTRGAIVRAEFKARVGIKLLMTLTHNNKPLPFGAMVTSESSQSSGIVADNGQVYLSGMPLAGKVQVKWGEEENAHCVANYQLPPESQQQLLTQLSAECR

FimH adhesin = FimH adhesin (Escherichia coli, UniProt P08191 22-300); assay: AUC
Chain of FimH adhesin (P08191 22-300): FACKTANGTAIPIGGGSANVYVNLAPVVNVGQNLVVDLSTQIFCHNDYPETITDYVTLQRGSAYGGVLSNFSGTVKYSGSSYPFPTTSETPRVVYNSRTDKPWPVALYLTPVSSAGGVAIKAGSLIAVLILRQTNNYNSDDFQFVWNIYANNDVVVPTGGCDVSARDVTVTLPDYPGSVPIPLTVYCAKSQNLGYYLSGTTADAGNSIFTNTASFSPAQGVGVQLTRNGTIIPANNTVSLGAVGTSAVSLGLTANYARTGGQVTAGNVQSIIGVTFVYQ

stoichiometry N [1]: 1
stoichiometry N (FimH adhesin): 1
B1: FimC chaperone (His-tagged, from pETS1001 fimCHisH) (natural protein)
chain: GVALGATRVIYPAGQKQEQLAVTNNDENSTYLIQSWVENADGVKDGRFIVTPPLFAMKGKKENTLRILDATNNQLPQDRESLFWMNVKAIPSMDKSKLTENTLQLAIISRIKLYYRPAKLALPPDQAAEKLRFRRSANSLTLINPTPYYLTVTELNAGTRVLENALVPPMGESTVKLPSDAGSNITYRTINDYGALTPKMTGVME
